Laboratory results taken from patent publication US20250144228A1, “NANOBODY-DRUG ADDUCTS AND USES THEREOF” (priority 2022, published 2025).

What was measured:
MICA*002 = MICA*002 (Homo sapiens, UniProt Q29983, K148E/T47A/W37G); assay type: binding
MICA*008 = MICA*008 (Homo sapiens, UniProt Q29983, C59Y/G229S/K148E/K196E/M152V/Q274R/S238T/T236I/T47A/W233R); assay type: binding
MICA*009 = assay type: binding, human
[1] = biological target: influenza A hemagglutinin

MICA*002, sequence (Q29983 24-307 W37G/T47A/K148E): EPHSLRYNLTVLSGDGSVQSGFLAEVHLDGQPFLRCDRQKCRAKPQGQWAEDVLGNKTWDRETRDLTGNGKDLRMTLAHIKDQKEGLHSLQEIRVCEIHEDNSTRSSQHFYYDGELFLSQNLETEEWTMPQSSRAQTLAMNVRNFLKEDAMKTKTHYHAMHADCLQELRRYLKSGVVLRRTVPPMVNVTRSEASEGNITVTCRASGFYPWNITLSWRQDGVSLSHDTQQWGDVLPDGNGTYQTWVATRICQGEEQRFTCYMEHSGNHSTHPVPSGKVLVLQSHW
MICA*008, sequence (Q29983 24-307 T47A/C59Y/K148E/M152V/K196E/G229S/W233R/T236I/S238T/Q274R): as the sequence (Q29983 24-307 W37G/T47A/K148E) above, with G14W, C36Y, M129V, K173E, G206S, W210R, T213I, S215T, Q251R counted along it

Molecule | binding to MICA variant (ELISA) (MICA*002) | binding to MICA variant (ELISA) (MICA*008) | binding to MICA variant (ELISA) (MICA*009) | affinity for influenza A hemagglutinin, in words [1] | affinity relative to genetically conjugated VHHkappa-SD36 [1]
B11: VHH specific for MICA, SEQ ID NO: 20 (protein) VHH: MAQVQLVETGGGLVQPGGSLRLSCAASGFTLDYYAIGWFRQAPGKEREGVSCITSDGNTYYADSVKGRFTISRDNAKNTVYLQMNSLKPEDTAVYYCAADCLSSTWRTNAYLGQGTQVTVSSGGLPETGGHHHHHH | not observed to bind | observed to bind | observed to bind |  | 
E9: VHH specific for MICA, SEQ ID NO: 23 (protein) VHH: MAQVQLVETGGGLVQPGGSLRLSCAASGFTLEHYAIGWFRQAPGKEQEGVSCITSDGDTYYADSVKGRFTISRDNAKNTVYLQMNSLKPEDTAVYYCAADCLSSNWRTSAYWAQGTQVTVSSGGLPETGGHHHHHH | not observed to bind | observed to bind | observed to bind |  | 
genetically fused VHHkappa-SD36: VHHkappa N-terminally linked to SD36 by (GGGGS)3 linker, SEQ ID NO: 5 (protein) QVQLVESGGGWVQPGGSLRLSCAASGFTFSDTAMMWVRQAPGKGREWVAAIDTGGGYTYYADSVKGRFTISRDNAKNTLYLQMNSLKPEDTARYYCAKTYSGNYYSNYTVANYGTTGRGTLVTVSSAAAGGGGSGGGGSGGGGSEVQLVESGGGLVQAGGSLKLSCAASGRTYAMGWFRQAPGKEREFVAHINALGTRTYYSDSVKGRFTISRDNAKNTEYLEMNNLKPEDTAVYYCTAQGQWRAAPVAVAAEYEFWGQGTQVTVSSGGLPETGGHHHHHH |  |  |  | low nanomolar | 
VHHkappa-SD36 conjugated through click chemistry: SD36-azide conjugated to VHHkappa-DBCO through copper-free click reaction (protein) VHH 1: QVQLVESGGGWVQPGGSLRLSCAASGFTFSDTAMMWVRQAPGKGREWVAAIDTGGGYTYYADSVKGRFTISRDNAKNTLYLQMNSLKPEDTARYYCAKTYSGNYYSNYTVANYGTTGRGTLVTVSSGG VHH 2: EVQLVESGGGLVQAGGSLKLSCAASGRTYAMGWFRQAPGKEREFVAHINALGTRTYYSDSVKGRFTISRDNAKNTEYLEMNNLKPEDTAVYYCTAQGQWRAAPVAVAAEYEFWGQGTQVTVSSGG |  |  |  | low nanomolar | higher affinity
